Reference: PMC5361195

B1: Flag-tagged wild-type A2 domain of coagulation factor VIII (pED-Flag-A2) [human] / calreticulin [not stated (endogenous in COS-1 or HEK293T cells)] (parent)
chain 1: KTWVHYIAAEEEDWDYAPLVLAPDDRSYKSQYLNNGPQRIGRKYKKVRFMAYTDETFKTREAIQHESGILGPLLYGEVGDTLLIIFKNQASRPYNIYPHGITDVRPLYSRRLPKGVKHLKDFPILPGEIFKYKWTVTVEDGPTKSDPRCLTRYYSSFVNMERDLASGLIGPLLICYKESVDQRGNQIMSDKRNVILFSVFDENRSWYLTENIQRFLPNPAGVQLEDPEFQASNIMHSINGYVFDSLQLSVCLHEVAYWYILSIGAQTDFLSVFFSGYTFKHKMVYEDTLTLFPFSGETVFMSMENPGLWILGCHNSDFRNRGMTALLKVSSC
chain 2: EPAVYFKEQFLDGDGWTSRWIESKHKSDFGKFVLSSGKFYGDEEKDKGLQTSQDARFYALSASFEPFSNKGQTLVVQFTVKHEQNIDCGGGYVKLFPNSLDQTDMHGDSEYNIMFGPDICGPGTKKVHVIFNYKGKNVLINKDIRCKDDEFTHLYTLIVRPDNTYEVKIDNSQVESGSLEDDWDFLPPKKIKDPDASKPEDWDERAKIDDPTDSKPEDWDKPEHIPDPDAKKPEDWDEEMDGEWEPPVIQNPEYKGEWKPRQIDNPDYKGTWIHPEIDNPEYSPDPSIYAYDNFGVLGLDLWQVKSGTIFDNFLITNDEAYAEEFGNETWGVTKAAEKQMKDKQDEEQRLKEEEEDKKRKEEEEAEDKEDDEDKDEDEEDEEDKEEDEEEDVPGQAKDEL

Variants of: B1
Assay: co-immunoprecipitation (anti-Flag IP, immunoblot densitometry)
Conditions: with calreticulin [not stated (endogenous in COS-1 or HEK293T cells)]; 36 h after transfection; n = 3; parent: 1; read off a plot

Row | ratio to parent | Variant
1 | 2.2 | chain 1 D201H
2 | 1.1 | chain 1 D201V
3 | 2.3 | chain 1 S205T
4 | 0.92 | chain 1 N203D
